# Assay results: the supplement of paper PMC9732359
# ± gives the uncertainty stated by the source.
# Assay: protein stability index of a GFP-peptide fusion (yeast GPS) (PSI 1-4); higher = more stable; sorted into four equal gates, so the index is relative within each strain
# How it was run: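 Mid-log yeast cultures in leucine-free medium, carrying a pooled plasmid library, were sorted into four equal gates by their GFP/Cherry fluorescence ratio. Each plasmid expressed Cherry along with GFP fused upstream of a tiled 17-residue yeast protein peptide. Plasmids recovered from each gate were PCR-amplified and Illumina-sequenced, with reads assigned to strains by barcodes. The protein stability index was obtained by summing each gate's read frequency weighted by its gate number.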
Sequence,protein stability index (doa10∆),protein stability index (pdr5∆),protein stability index (ubr1∆),protein stability index (san1∆)
PGSVEEVDKSKLITTYI [YDL116W/NUP84],3.39 ± 0.18,3.33 ± 0.26,3.42 ± 0.18,
LTNQQPKNLSTPSTSSN [CSE2],2.94 ± 0.067,2.84 ± 0.068,2.79 ± 0.059,2.67 ± 0.066
AASAAGYDRHITIFSPE [SCL1],2.86 ± 0.11,2.76 ± 0.075,2.95 ± 0.051,2.87 ± 0.064
RYLVGGNKIQKVLLDSK [RPS7A],1.24 ± 0.084,2.01 ± 0.18,1.7 ± 0.17,1.51 ± 0.25
TLELESFLEGSKALNSI [RGR1],2.54 ± 0.066,2.16 ± 0.067,2.9 ± 0.078,3.13 ± 0.066
TKPGVYYVPYSKLMPVL [RPC82],1.54 ± 0.059,1.59 ± 0.049,1.96 ± 0.09,1.91 ± 0.067
YLERIELSFYILYSFKL [YML103C/NUP188],1.49 ± 0.057,1.37 ± 0.044,1.59 ± 0.037,1.2 ± 0.08
KKQNLSSHQRVFKLSTN [SWP82],1.94 ± 0.052,2.08 ± 0.052,2.06 ± 0.043,2.05 ± 0.068
RKCQFRTPDSISVNSSS [POP1],2.44 ± 0.074,2.52 ± 0.073,2.37 ± 0.062,2.64 ± 0.056
SKSNLIHNYDSKKSTIT [RGR1],3.03 ± 0.067,3.03 ± 0.054,3.11 ± 0.038,3.05 ± 0.04
TRVNAQLESYEYMVQYI [RRI1],3.2 ± 0.059,3.23 ± 0.073,3.22 ± 0.076,3.42 ± 0.058
HEYIRHLALEIGEVYND [RPN1],2.29 ± 0.065,2.09 ± 0.067,1.54 ± 0.077,2.49 ± 0.11
KILRDNIQGITKPAIRR [HHF1],3.17 ± 0.083,3.33 ± 0.077,3.21 ± 0.058,3.08 ± 0.055
VGPHFKQANNFLWPFKL [RPL7A],2.71 ± 0.069,3.05 ± 0.098,2.93 ± 0.064,2.97 ± 0.065
DTDKLPIKNRTSKSFSK [SIN4],2.83 ± 0.1,2.85 ± 0.067,2.92 ± 0.068,2.61 ± 0.11
ITLHPSFFGPRMKQYLK [RPB7],2.41 ± 0.12,2.47 ± 0.12,2.02 ± 0.061,1.75 ± 0.21
TQQAVNLEKNYLAKLSK [IRR1],3.06 ± 0.27,3.34 ± 0.23,2.91 ± 0.14,
VKIGKFIPHGLKRRQVI [SRB8],2.48 ± 0.1,2.23 ± 0.075,1.95 ± 0.078,3.11 ± 0.06
KTPNRSSTPKFTKKPVT [SIR4],2.77 ± 0.082,2.81 ± 0.082,2.94 ± 0.054,2.91 ± 0.056
VKVARLAGKYIPNLTAK [FAS1],3.34 ± 0.25,2.58 ± 0.22,3.03 ± 0.14,
PKSTLDNWRREFLKWTP [ISW2],,3.15 ± 0.15,2.76 ± 0.09,
HLLRQTNAFLDSLTRAV [SNF2],2.61 ± 0.061,2.6 ± 0.066,2.65 ± 0.033,2.69 ± 0.044
KTYNCLHEKYLTEGGSI [SMC1],3.03 ± 0.14,3.05 ± 0.072,2.98 ± 0.069,2.52 ± 0.076
NRRWTQRRGPLVVYAED [RPL4A],2.44 ± 0.16,2.48 ± 0.17,2.16 ± 0.1,2.12 ± 0.093
GGGRVDKPLLKAGRAFH [RPL2A],3.12 ± 0.048,3.11 ± 0.043,2.99 ± 0.03,2.95 ± 0.049
LGTVQREIESLIAEETN [SMC3],2.79 ± 0.18,2.83 ± 0.082,2.91 ± 0.15,3.01 ± 0.12

Sequence,protein stability index (doa10∆),protein stability index (pdr5∆),protein stability index (ubr1∆),protein stability index (san1∆)
LIITRKAFKNNSSKYYI [SMC4],2.59 ± 0.083,2.98 ± 0.092,2.69 ± 0.11,2.66 ± 0.068
YYQRLRHMVDDKIHARA [RPB2],,2.84 ± 0.28,2.77 ± 0.15,3.12 ± 0.12
LNVYHYFGENSSISWKN [YJL039C/NUP192],1.79 ± 0.08,2.76 ± 0.082,3.03 ± 0.1,2.65 ± 0.083
SSSKQQSRLFINELVLE [SMC4],3.02 ± 0.14,2.95 ± 0.1,3.05 ± 0.085,2.58 ± 0.16
LRRLEILVPDLYHLVIM [ECM29],1.59 ± 0.054,1.54 ± 0.036,1.61 ± 0.032,1.46 ± 0.065
YKPLIEERMGQIENLNE [SMC4],3.2 ± 0.23,3.34 ± 0.098,3.28 ± 0.068,3.46 ± 0.071
FPLCVHLVSNELEQLSS [RPL10],2.7 ± 0.079,2.71 ± 0.065,2.44 ± 0.049,2.52 ± 0.089
FMRQNLEWNMANLLFKK [RPC82],2.82 ± 0.11,1.94 ± 0.055,2.85 ± 0.063,2.49 ± 0.082
TISSLFVQLCEMGYLIQ [RPC82],1.85 ± 0.061,1.69 ± 0.078,2.39 ± 0.081,1.61 ± 0.16
LIETVRQMKDVNAPLPT [RPN2],3.12 ± 0.055,3.12 ± 0.051,3.04 ± 0.036,2.9 ± 0.05
KTTPNTASSEASAGSKE [YMR153W/NUP53],2.98 ± 0.052,3.34 ± 0.061,3.12 ± 0.038,3.16 ± 0.046
TAAFTAMICEAKGLIEN [YJR042W/NUP85],2.62 ± 0.067,2.86 ± 0.06,2.94 ± 0.052,2.72 ± 0.068
HSFAVLLHERKLLNDLA [NUT1],2.68 ± 0.049,2.49 ± 0.057,2.71 ± 0.036,2.46 ± 0.086
SLYPPPPPYVKFFTQSN [MED7],1.97 ± 0.043,2.17 ± 0.048,2.35 ± 0.031,2.16 ± 0.072
EVAKKRSRKTVKAQRPI [RPL24A],3.12 ± 0.097,3.29 ± 0.11,3.17 ± 0.16,3.18 ± 0.15
KAKRQINSGTNSANGSS [SSN3],2.52 ± 0.057,2.68 ± 0.058,2.91 ± 0.046,2.92 ± 0.057
VGLSQPDAKIQVRRDIP [YMR129W/POM152],2.98 ± 0.082,2.76 ± 0.14,2.97 ± 0.066,2.51 ± 0.059
YKVDNMTRILPQQSRYI [RPN2],2.29 ± 0.077,3.03 ± 0.12,2.56 ± 0.099,2.5 ± 0.1
KGVGRRYSNLVCKKADV [RPS18A],3.46 ± 0.2,2.37 ± 0.11,2.49 ± 0.074,1.74 ± 0.1
EKSGISKMSDESFAELM [RPC17],3.26 ± 0.14,,3.42 ± 0.2,3.27 ± 0.11
QQSTDADEDDEDAKYVI [RPT1],,3.56 ± 0.27,3.8 ± 0.14,
KNGALVSNILSAFKFIH [YJL039C/NUP192],1.71 ± 0.055,1.65 ± 0.046,1.3 ± 0.036,1.51 ± 0.065
TSPFGGARPGRVARRNA [RPS9A],2.8 ± 0.15,2.84 ± 0.28,3.28 ± 0.1,3.02 ± 0.15
DLEEVKRFQVLYPCYFD [SEC65],2.28 ± 0.14,2.75 ± 0.088,2.34 ± 0.12,2.42 ± 0.25
ENNYKKRLLGTAFKSSP [RPS23A],2.32 ± 0.047,2.6 ± 0.049,2.44 ± 0.036,2.22 ± 0.062
ANAAKRAEAKAQGVAVQ [RPL21A],2.55 ± 0.13,1.96 ± 0.13,1.92 ± 0.14,2.06 ± 0.28

Sequence,protein stability index (doa10∆),protein stability index (pdr5∆),protein stability index (ubr1∆),protein stability index (san1∆)
AKSDETKQASSFSFLNR [YLR335W/NUP2],3.35 ± 0.069,3.39 ± 0.099,3.31 ± 0.05,3.26 ± 0.044
SQIFDQLKDMQTIEMIT [SRB8],2.78 ± 0.058,3.11 ± 0.049,2.85 ± 0.043,2.72 ± 0.049
IGKMYDEYLGSHTDQPA [NNF1],3.37 ± 0.16,2.9 ± 0.17,3.28 ± 0.086,
IRVAETRGGASALIENN [YJL039C/NUP192],2.39 ± 0.071,2.46 ± 0.089,2.89 ± 0.055,3.1 ± 0.072
NSITSGGLKSCDLDFPL [YDL116W/NUP84],2.78 ± 0.078,3.11 ± 0.068,3.2 ± 0.063,3.32 ± 0.072
SYNLEYIESKFCPGEIV [YMR129W/POM152],3.15 ± 0.13,3.21 ± 0.19,3.21 ± 0.096,3.12 ± 0.14
LNDRQEEISRLQRDLIQ [YIL149C/MLP2],2.72 ± 0.11,3.25 ± 0.25,3.05 ± 0.12,3.07 ± 0.26
KPSFSFPGKPVDVQAPT [YOR098C/NUP1],2.72 ± 0.056,2.88 ± 0.094,2.77 ± 0.068,3.12 ± 0.055
DEADKMIDLGFEDQVTN [PRP28],3.16 ± 0.098,3.34 ± 0.11,3.1 ± 0.061,3.16 ± 0.11
LLCDKAQKNTQSYGGRP [PRE5],3.17 ± 0.14,3.27 ± 0.095,3.26 ± 0.077,3.37 ± 0.092
ERSICALGEFADWDPES [YML031W/NDC1],3.5 ± 0.14,3.53 ± 0.092,3.27 ± 0.064,3.28 ± 0.088
QIAAQSPVELSRMFEEV [SMC1],3.19 ± 0.14,3.2 ± 0.079,3.27 ± 0.075,3.14 ± 0.058
TRALQISMNAPVFVDLE [RPO26],,,3 ± 0.19,
IKEIINASKVISTPIIN [RPO31],3.08 ± 0.11,1.88 ± 0.17,1.53 ± 0.25,1.03 ± 0.18
INGEDPANNHQLGLQTV [SMX2],2.93 ± 0.11,2.94 ± 0.1,3.08 ± 0.06,2.9 ± 0.073
GAHGNSDPVCLFVCNKD [POP3],3 ± 0.098,3.37 ± 0.12,2.8 ± 0.059,3.07 ± 0.084
PYFEQKIQETELKIRSK [RPT6],2.71 ± 0.12,2.84 ± 0.1,3.04 ± 0.088,2.96 ± 0.13
GSADIGASVISLTKDKS [SIR4],3.01 ± 0.086,3.12 ± 0.067,3.21 ± 0.052,2.92 ± 0.084
AKLHRISPKIWCAGAGT [PUP1],1.93 ± 0.049,1.87 ± 0.046,1.88 ± 0.042,1.85 ± 0.056
AGIKTRKFVFNPPKPRK [CYT1],3.06 ± 0.06,3.19 ± 0.074,3.07 ± 0.063,3.03 ± 0.06
NGGSEEEITCALDYLIP [MED7],3.45 ± 0.1,3.45 ± 0.13,3.35 ± 0.09,3.44 ± 0.098
LLSDPTITIKSYHLWPS [PRP8],2.33 ± 0.063,2.62 ± 0.073,2.51 ± 0.077,2.53 ± 0.094
ALTNELNELKAIKDKLE [YIL149C/MLP2],1.35 ± 0.061,2.01 ± 0.07,1.96 ± 0.058,1.89 ± 0.096
FKAIHGSQLRLSEWEEY [YCS4],1.27 ± 0.058,1.58 ± 0.05,1.29 ± 0.029,2 ± 0.12
MKQLKFFKPLDYITEAV [SNU114],2.12 ± 0.043,2.05 ± 0.052,1.92 ± 0.036,1.86 ± 0.082
